The values that follow come from paper PMC7072298 (2020).

This assay concerns the target HSP90αM domain (solid phase assays of Figure 2B and 2C). The assay can be described thus: ELISA. In general terms: ELISA stands for enzyme-linked immunosorbent assay.

B1: 45-kDa gelatin-binding FN fragment (FN45) (domain or fragment)
chain: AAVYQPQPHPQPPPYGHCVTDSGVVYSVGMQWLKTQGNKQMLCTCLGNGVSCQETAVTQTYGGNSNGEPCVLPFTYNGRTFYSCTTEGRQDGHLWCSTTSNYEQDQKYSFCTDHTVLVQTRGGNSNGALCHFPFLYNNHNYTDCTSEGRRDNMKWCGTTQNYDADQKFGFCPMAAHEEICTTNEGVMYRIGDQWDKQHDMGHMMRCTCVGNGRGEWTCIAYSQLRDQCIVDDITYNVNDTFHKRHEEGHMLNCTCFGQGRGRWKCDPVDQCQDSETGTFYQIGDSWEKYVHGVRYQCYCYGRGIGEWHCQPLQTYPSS
B1: binding was characterised by a dissociation constant (Kd) of 222 nM.

B2: N-terminal FN 30-kDa heparin-binding fragment (FN30) (domain or fragment)
chain: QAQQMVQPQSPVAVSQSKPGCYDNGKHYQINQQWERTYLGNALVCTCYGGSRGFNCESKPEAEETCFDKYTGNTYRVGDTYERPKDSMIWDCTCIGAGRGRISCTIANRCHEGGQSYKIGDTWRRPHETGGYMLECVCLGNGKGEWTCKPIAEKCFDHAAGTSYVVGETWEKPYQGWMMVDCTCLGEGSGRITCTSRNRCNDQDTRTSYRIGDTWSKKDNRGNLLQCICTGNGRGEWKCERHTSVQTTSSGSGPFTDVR
Molecule B2 returned a dissociation constant Kd of 65.1 nM.

By Kd is commonly meant a measure of binding affinity in units of concentration. The low end stands for a tighter complex, the high end for a looser complex.
